Results published in patent US20050271676A1, “Inducing cellular immune responses to human immunodeficiency virus-1 using peptide and nucleic acid compositions” (Epimmune Inc., priority 1993, published 2005).
No end group written: not given here.

Experiments:
HLA-A*0206 = HLA-A*0206 (Homo sapiens, UniProt P04439, D140Y/D185E/D98H/E176V/E277Q/F33Y/G131W/G231S/I119V/I121R/I166T/I218V/L300P/L318F/N151K/N90K/P208A/P217A/Q86G/Q94H/R138H/R169H/T345S); assay: purified HLA class I binding assay, A*0206
HLA-A*6802 = HLA-A*6802 (Homo sapiens, UniProt P04439, A269V/D140Y/D185E/E176V/E277Q/E87N/F33Y/G231S/I121R/I166T/I218V/L180W/L300P/L318F/N151K/P208A/P217A/Q86R/R138H/R169H/S129P/T345S/V36M); assay: purified HLA class I binding assay, A*6802
HLA-A*0202 = HLA-A*0202 (Homo sapiens, UniProt P04439, D140Y/D185E/D98H/E176V/E277Q/G131W/G231S/I119L/I121R/I166T/I218V/L180W/L300P/L318F/N151K/N90K/P208A/P217A/Q67R/Q86G/Q94H/R138H/R169H/T345S); assay: purified HLA class I binding assay, A*0202
HLA-A*0203 = HLA-A*0203 (Homo sapiens, UniProt P04439, A173T/D140Y/D185E/D98H/E277Q/G131W/G231S/I119V/I121R/I166T/I218V/L180W/L300P/L318F/N151K/N90K/P208A/P217A/Q86G/Q94H/R138H/R169H/T345S); assay: purified HLA class I binding assay, A*0203
HLA-A*0301 = molecular target: T1, HLA-A*0301 (Homo sapiens, UniProt P04439); assay: purified HLA class I binding assay, A*0301; conditions: for A*0301 binding information: binding value
T1 construct: endogenous in cells; host or cells: GM3107

HLA-A*6801 = HLA-A*6801 (Homo sapiens, UniProt P04439, A269V/D185E/E176V/E277Q/E87N/F33Y/G231S/I121M/I166T/I218V/L180W/L300P/L318F/N151K/P208A/P217A/Q86R/R169H/T345S); assay: purified HLA class I binding assay, A*6801; conditions: binding value
HLA-A*1101 = HLA-A*1101 (Homo sapiens, UniProt P04439, A114D/D185E/E176A/F33Y/L180Q/S129P/T187R); assay: purified HLA class I binding assay, A*1101
HLA-A*3101 = HLA-A*3101 (Homo sapiens, UniProt P04439, A270S/D185E/E176V/E277Q/F33T/G231S/G80R/H175R/I121M/I218V/I322F/K168Q/L300P/L318F/M331R/P217A/Q94H/R138Q/T323A/T345S/T97I/V358M); assay: purified HLA class I binding assay, A*3101; conditions: binding value
HLA-A*0201 = HLA-A*0201 (Homo sapiens, UniProt P04439, D140Y/D185E/D98H/E176V/E277Q/G131W/G231S/I119V/I121R/I166T/I218V/L300P/L318F/N151K/N90K/P208A/P217A/Q86G/Q94H/R138H/R169H/T345S); assay: purified HLA class I binding assay, A*0201; conditions: for A*0201 (binding information): Table VIII, unit not given
HLA-A*2402 = HLA-A*2402 (Homo sapiens, UniProt P04439, D101N/D140Y/D185E/E176V/E190D/F33S/G103R/G107R/I119L/I121M/I306V/K335N/L105A/L180Q/L300P/N151K/N90K/Q86E/Q94H/R106L/R138H/R89G/T104I/T345S/V100E/W191G/Y123F); assay: purified HLA class I binding assay, A*2402
HLA-DRB1*0401 (DR4w4) = molecular target: T2, HLA-DRB1*0401 (DR4w4) (Homo sapiens, UniProt P01903+P01911, A100K/A169T/F76Y/I96L/K127E/L162R/M171V/N62H/P40V/Q125Y/R42H/S133A/S149N/S66Y/V115G/V209L/W38E); assay: purified HLA class II binding assay, DRB1*0401 (DR4w4); conditions: HIV DR super motif peptides; unit not given
T2 construct: endogenous in cells; host or cells: Preiss
T2 sequence (P01903 26-254 partner, other chains not shown): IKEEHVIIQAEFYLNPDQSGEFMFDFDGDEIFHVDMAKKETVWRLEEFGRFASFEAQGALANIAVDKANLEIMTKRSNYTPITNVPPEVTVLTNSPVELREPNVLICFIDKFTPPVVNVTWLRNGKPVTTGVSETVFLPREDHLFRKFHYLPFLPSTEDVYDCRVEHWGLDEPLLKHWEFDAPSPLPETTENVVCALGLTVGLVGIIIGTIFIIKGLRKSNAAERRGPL

HLA-DRB1*0701 (DR7) = molecular target: T3, HLA-DRB1*0701 (DR7) (Homo sapiens, UniProt P01903+P01911, A100R/A102G/A103Q/D57E/D86V/E43K/F76Y/K127E/L162R/M171V/P40G/Q125H/Q99D/R33Q/R42Y/R54Q/S133A/S66F/T210M/V115G/Y107V/Y59L/Y89S); assay: biochemical; assay type: binding
T3 construct: endogenous in cells; host or cells: Pitout

[1] = Table IX, HIV A03 super motif peptides, unit not given
[2] = Table IX, HIV A03 super motif peptides, binding value, unit not given
[3] = Table XVII, HIV A11 motif peptides, binding value A*1101, unit not given
[4] = HIV A24 supermotif peptides, Table X, A*2401, unit not given
[5] = HIV A03 supermotif peptides, no unit given
[6] = Table VIII, HIV A02 Super Motif Peptides with Binding Information, unit not given
[7] = HIV A24 supermotif peptides, purified HLA molecule, no unit printed in Table X

CC[C@H](C)[C@H](NC(=O)[C@H](C)N)C(=O)N[C@H](C(=O)N[C@@H](CCCNC(=N)N)C(=O)N[C@H](C(=O)N[C@@H](CC(C)C)C(=O)N[C@@H](CCC(N)=O)C(=O)N[C@@H](CCC(N)=O)C(=O)N[C@@H](CC(C)C)C(=O)O)[C@@H](C)CC)[C@@H](C)CC [Peptide 1261.11]
IC50 (HLA-A*0206): 0.0385 µM
IC50 (HLA-A*6802): 0.548 µM
IC50 (HLA-A*0202): 0.0226 µM

CSCC[C@H](N)C(=O)N[C@@H](C)C(=O)N[C@@H](CO)C(=O)N[C@@H](CC(=O)O)C(=O)N[C@@H](Cc1ccccc1)C(=O)N[C@@H](CC(N)=O)C(=O)N[C@@H](CC(C)C)C(=O)N1CCC[C@H]1C(=O)N1CCC[C@H]1C(=O)N[C@H](C(=O)O)C(C)C [Peptide 1261.15]
IC50 (HLA-A*0203): 0.0556 µM
IC50 (HLA-A*0206): 0.0336 µM
IC50 (HLA-A*6802): 0.0182 µM
IC50 (HLA-A*0202): 0.0226 µM

ASCDKCQLK
A0301 (HIV A03 Motif Peptides with Binding Information) (HLA-A*0301; HIV POL-derived A03 motif peptides, binding value for purified HLA-A*0301, unit not given): 0.0027
A*0301 binding information (HLA-A*0301; [1]): 0.0027
A*6801 binding information (HLA-A*6801; [1]): 0.0001
A*1101 (binding information) (HLA-A*1101; [2]): 0.0140
A*1101 (binding information) (HLA-A*1101; [3]): 0.0040
A*3101 binding information (HLA-A*3101; [1]): 0.0020

DIQIKELQK
A*0301 binding information (HLA-A*0301; [1]): 0.0009
A*6801 binding information (HLA-A*6801; [1]): 0.0001
A*1101 (binding information) (HLA-A*1101; [2]): 0.0006
A*3101 binding information (HLA-A*3101; [1]): 0.0006

FLGAAGSTM [1211.05]
IC50 (HLA-A*0201): 0.0735 µM
IC50 (HLA-A*0203): 0.0015 µM
IC50 (HLA-A*0206): 4.11 µM
IC50 (HLA-A*6802): 66.7 µM
IC50 (HLA-A*0202): 3.58 µM

FTTPDKKIIQK
A*0301 binding information (HLA-A*0301; [1]): 0.0002
A*6801 binding information (HLA-A*6801; [1]): 0.0273
A*1101 (binding information) (HLA-A*1101; [2]): 0.0150
A*1101 (binding information) (HLA-A*1101; [3]): 0.0150
A*3101 binding information (HLA-A*3101; [1]): 0.0010

GIPHPAGLK
A*6801 binding information (HLA-A*6801; [1]): 0.0110
A*1101 (binding information) (HLA-A*1101; [2]): 0.0650
A*3101 binding information (HLA-A*3101; [1]): 0.0007

GYELIIPDKW
A*2401 (binding information) (HLA-A*2402; [4]): 0.0001

IWQLDCTIIL
A*2401 (binding information) (HLA-A*2402; [4]): 0.0095

IYQEPIKNL
A*2401 (binding information) (HLA-A*2402; [4]): 0.0520

KLTEERWNK
A*0301 binding information (HLA-A*0301; [5]): 0.0130
A*6801 binding information (HLA-A*6801; [5]): 0.0002
A*1101 (binding information) (HLA-A*1101; HIV A03 supermotif peptides, binding value, no unit given): 0.2700
A*3101 binding information (HLA-A*3101; [5]): 0.0680

KMIGGIGGPI
A*2401 (binding information) (HLA-A*2402; HIV A24 motif peptides, purified HLA-A24 molecule, unit not given): 0.0001

LIFGWCFKLV
A*0201 (binding information) (HLA-A*0201; HIV A02 Super Motif Peptides with Binding Information): 0.0170
A*0203 binding information (HLA-A*0203; [6]): 0.0540
A*0206 binding information (HLA-A*0206; [6]): 0.0640
A*6802 binding information (HLA-A*6802; [6]): 6.5000
A*0202 binding information (HLA-A*0202; [6]): 0.0880

NMVEQMIIEDI
A*2401 (binding information) (HLA-A*2402; [7]): 0.0004
A*0201 (binding information) (HLA-A*0201; HIV A02 super motif peptides): 0.0001

NMWQEVGKA
A*2401 (binding information) (HLA-A*2402; [7]): 0.0001
A*0201 (binding information) (HLA-A*0201; HIV A02 super motif peptides): 0.0022

NNLLRAIEAQQIILLQ
DR4w4 binding (HLA-DRB1*0401 (DR4w4)): 0.0150
DR7 binding (HLA-DRB1*0701 (DR7)): 0.0150
